Tests used:
[1] = biological target: Bacillus phage Phi3T Gabija anti-defense 1 (Gad1) (Bacillus phage Phi3T); experiment: cryo-EM structure
[2] = biological target: SUMO2-tagged Bacillus cereus VD045 GajAB complex (Bacillus cereus VD045) (UniProt J8H9C1); experiment: cryo-EM structure
[3] = biological target: Bacillus cereus VD045 GajB (Gabija protein B), untagged, co-expressed with GajA (Bacillus cereus VD045) (UniProt J8HQ06); experiment: crystal structure

Chain of Bacillus phage Phi3T Gabija anti-defense 1 (Gad1) (natural protein) (A0A1P8CWZ3 whole entry): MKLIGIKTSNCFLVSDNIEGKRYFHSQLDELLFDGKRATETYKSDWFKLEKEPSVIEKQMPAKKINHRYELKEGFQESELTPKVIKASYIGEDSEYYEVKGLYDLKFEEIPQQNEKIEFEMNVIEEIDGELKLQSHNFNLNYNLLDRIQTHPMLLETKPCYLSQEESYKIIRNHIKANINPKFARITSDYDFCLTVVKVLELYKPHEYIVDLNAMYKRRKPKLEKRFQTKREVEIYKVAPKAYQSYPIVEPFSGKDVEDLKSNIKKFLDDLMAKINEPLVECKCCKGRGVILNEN
Chain of SUMO2-tagged Bacillus cereus VD045 GajAB complex (Bacillus cereus VD045) (J8H9C1 2-578, chain 1 of 2): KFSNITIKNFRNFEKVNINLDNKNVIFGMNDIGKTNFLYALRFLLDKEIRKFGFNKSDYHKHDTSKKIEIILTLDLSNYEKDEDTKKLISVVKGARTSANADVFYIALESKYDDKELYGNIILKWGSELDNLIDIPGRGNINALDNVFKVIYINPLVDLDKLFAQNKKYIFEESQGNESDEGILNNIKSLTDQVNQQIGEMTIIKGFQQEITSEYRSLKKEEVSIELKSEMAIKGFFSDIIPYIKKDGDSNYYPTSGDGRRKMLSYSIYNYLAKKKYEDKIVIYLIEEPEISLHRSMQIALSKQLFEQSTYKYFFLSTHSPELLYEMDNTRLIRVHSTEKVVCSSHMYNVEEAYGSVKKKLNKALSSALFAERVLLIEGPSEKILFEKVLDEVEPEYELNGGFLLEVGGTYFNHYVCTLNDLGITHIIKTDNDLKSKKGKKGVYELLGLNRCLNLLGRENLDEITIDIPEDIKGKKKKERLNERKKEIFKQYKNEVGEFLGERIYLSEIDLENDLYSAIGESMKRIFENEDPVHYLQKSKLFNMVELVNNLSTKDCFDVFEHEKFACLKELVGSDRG
Chain of SUMO2-tagged Bacillus cereus VD045 GajAB complex (Bacillus cereus VD045) (J8HQ06 2-494, chain 2 of 2, further chain): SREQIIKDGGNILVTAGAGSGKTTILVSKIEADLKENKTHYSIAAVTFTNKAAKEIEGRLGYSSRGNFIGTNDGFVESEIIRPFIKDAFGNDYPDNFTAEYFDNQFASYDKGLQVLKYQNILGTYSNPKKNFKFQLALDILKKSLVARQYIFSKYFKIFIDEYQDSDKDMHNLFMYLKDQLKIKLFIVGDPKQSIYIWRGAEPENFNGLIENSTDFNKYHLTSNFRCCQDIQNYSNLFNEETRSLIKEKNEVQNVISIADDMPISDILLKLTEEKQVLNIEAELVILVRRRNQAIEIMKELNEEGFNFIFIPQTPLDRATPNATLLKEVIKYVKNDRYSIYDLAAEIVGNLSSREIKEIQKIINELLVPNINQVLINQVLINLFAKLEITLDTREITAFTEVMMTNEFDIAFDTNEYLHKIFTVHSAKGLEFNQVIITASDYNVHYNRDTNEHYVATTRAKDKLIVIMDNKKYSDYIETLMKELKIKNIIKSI

Row | Substance | stoichiometry N [1] | stoichiometry N (Gad1 per 4:4 GajAB assembly) [2] | stoichiometry N [3]
1 | Bacillus phage Phi3T Gabija anti-defense 1 (Gad1) (natural protein) | 8 | 8 | 
2 | Bacillus cereus VD045 GajB (Gabija protein B), untagged, co-expressed with GajA (from UniProt J8HQ06 2-494) (enzyme) |  |  | 2

Reference: publication doi:10.1101/2023.05.01.538945
